The values below come from PMC5029092 (Science signaling, 2011).

Test [1] addresses recombinant human TLR4 and MD2 complex (human, UniProt O00206 24-631; Q9Y6Y9 19-160). Kind of test: MST.
The target in the next test is recombinant human TLR2 (human, UniProt O60603 21-588). Kind of test: MST.
recombinant human TLR2, sequence (O60603 21-588): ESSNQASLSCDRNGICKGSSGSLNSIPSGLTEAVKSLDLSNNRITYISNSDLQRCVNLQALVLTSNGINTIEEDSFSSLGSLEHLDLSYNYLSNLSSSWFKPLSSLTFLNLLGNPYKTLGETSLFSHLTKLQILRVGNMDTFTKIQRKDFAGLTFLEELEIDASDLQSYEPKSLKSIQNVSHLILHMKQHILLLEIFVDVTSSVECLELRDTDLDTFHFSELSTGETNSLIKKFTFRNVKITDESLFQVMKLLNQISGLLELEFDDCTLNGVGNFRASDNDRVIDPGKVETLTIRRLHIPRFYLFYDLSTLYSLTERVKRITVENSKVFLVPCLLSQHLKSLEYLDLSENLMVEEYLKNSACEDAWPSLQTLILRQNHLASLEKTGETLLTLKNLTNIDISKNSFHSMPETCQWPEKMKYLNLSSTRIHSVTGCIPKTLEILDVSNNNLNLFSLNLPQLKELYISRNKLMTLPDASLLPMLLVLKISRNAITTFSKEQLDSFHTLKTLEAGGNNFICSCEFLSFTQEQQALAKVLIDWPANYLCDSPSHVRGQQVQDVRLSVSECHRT

recombinant human TLR4 and MD2 complex, sequence (O00206 24-631, chain 1 of 2): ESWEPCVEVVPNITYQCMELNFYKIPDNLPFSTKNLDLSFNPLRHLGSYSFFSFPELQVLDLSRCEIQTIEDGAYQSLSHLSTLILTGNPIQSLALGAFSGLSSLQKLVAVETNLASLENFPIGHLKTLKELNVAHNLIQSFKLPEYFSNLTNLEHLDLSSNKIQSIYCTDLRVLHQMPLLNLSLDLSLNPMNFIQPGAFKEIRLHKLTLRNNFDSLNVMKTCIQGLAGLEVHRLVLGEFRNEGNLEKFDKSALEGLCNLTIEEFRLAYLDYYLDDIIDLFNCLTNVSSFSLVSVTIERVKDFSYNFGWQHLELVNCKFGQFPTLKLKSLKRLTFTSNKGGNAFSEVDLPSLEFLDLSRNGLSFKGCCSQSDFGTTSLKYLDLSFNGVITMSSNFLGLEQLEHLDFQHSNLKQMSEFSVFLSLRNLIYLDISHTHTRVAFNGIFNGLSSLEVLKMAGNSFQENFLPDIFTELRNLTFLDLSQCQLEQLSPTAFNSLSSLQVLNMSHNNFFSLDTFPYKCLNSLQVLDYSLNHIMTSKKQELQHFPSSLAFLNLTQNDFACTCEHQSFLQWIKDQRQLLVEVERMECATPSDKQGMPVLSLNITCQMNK
recombinant human TLR4 and MD2 complex, sequence (Q9Y6Y9 19-160, chain 2 of 2): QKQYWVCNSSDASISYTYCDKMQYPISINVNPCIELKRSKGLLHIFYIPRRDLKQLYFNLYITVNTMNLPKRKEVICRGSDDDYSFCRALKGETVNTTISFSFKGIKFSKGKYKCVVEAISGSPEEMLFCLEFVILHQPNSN

B1: NT-647-labeled human decorin (natural protein, UniProt P07585 31-359, looked up)
chain: DEASGIGPEVPDDRDFEPSLGPVCPFRCQCHLRVVQCSDLGLDKVPKDLPPDTTLLDLQNNKITEIKDGDFKNLKNLHALILVNNKISKVSPGAFTPLVKLERLYLSKNQLKELPEKMPKTLQELRAHENEITKVRKVTFNGLNQMIVIELGTNPLKSSGIENGAFQGMKKLSYIRIADTNITSIPQGLPPSLTELHLDGNKISRVDAASLKGLNNLAKLGLSFNSISAVDNGSLANTPHLRELHLDNNKLTRVPGGLAEHKYIQVVYLHNNNISVVGSSDFCPPGHNTKKASYSGVSLFSNPVQYWEIQPSTFRCVYVRSAIQLGNYK
modifications: fluorophore NT-647 (Monolith NT protein Labeling Kit)
As usually defined, the Kd is the constant that tells how readily two partners part at equilibrium. Regarding B1, the Kd was 37 ± 5 nM in test [1] and 59 ± 10 nM in the test with recombinant human TLR2.
